Test results reported in PMC5069480, “MPP2 is a postsynaptic MAGUK scaffold protein that links SynCAM1 cell adhesion molecules to core components of the postsynaptic density” (Scientific Reports, 2016).

Biological target: T1, bacterially produced MPP2 PDZ-SH3-GK (MPP2 PSG module) (mouse)
T1 construct: source: E. coli Rosetta, purified (Ni-NTA, Superdex 75)
T1 sequence (Q9WV34 whole entry, looked up): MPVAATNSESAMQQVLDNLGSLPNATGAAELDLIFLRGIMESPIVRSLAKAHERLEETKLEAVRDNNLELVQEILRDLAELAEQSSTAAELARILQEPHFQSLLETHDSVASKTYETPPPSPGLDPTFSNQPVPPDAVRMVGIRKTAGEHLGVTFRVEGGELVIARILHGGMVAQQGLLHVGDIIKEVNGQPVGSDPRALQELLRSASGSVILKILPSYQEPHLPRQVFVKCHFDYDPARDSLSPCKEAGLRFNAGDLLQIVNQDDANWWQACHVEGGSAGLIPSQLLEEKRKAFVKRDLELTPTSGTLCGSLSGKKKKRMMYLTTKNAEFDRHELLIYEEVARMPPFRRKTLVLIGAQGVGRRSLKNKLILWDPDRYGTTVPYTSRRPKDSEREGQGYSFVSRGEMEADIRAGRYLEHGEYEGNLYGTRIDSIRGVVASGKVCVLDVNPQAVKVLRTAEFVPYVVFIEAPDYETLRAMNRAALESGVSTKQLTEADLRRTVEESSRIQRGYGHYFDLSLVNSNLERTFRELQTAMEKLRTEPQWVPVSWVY
Assay: ITC; ITC200 at 25 °C; 200 mM NaCl, 20 mM Tris-HCl pH 7.5, 1 mM DTT; 350 μM mCherry-tagged peptide titrated into 55 μM MPP2 PSG module in the cell; single-site binding model
Details: both partners purified

Q: With GGGGSGGGGSGGGGSNSEEKKEYFI (domain or fragment) [bacterially produced mCherry-tagged SynCAM1 peptide (C-terminus)] as the binder, how does the Kd read?
A: 3.1 ± 0.239 µM
